Experimental data reported in patent US7888090B2, “Mutants of O6-alkylguanine-DNA alkyltransferase” (Ecole Polytechnique Federale de Lausanne, priority 2004, dated 2011).

Assays:
[1] = Stability after reaction with BG-FL; type: physicochemical; settings: over 7 days
Description: Stability before reaction is determined for the mutant AGT or for a mutant AGT fusion protein by incubating purified samples in buffered aqueous solution for up to two weeks at 4° C. and up to six months at −20° C. At several time points, aliquots are taken and concentration of reactive AGT is estimated as described by Juillerat et al., Chem Biol 10:313-317, 2003. Stability for wild type AGT and the AGT mutant after reaction with a labelled substrate and after subsequent separation from unreacted substrate is determined by quantifying the concentration of the label in the soluble fraction over up to two weeks at 4° C. and up to three months at −20° C.
Stability after reaction: The vector pBAD/H is A (Invitrogen) is modified by cloning synthetic oligonucleotides (SEQ ID NO:29 and SEQ ID NO:30) between the NcoI and HindIII sites to include a 12×His-tag and SbfI and AscI cloning sites. The gene of AGTM is amplified with primers SEQ ID NO:31 and SEQ ID NO:32 and cloned between the SbfI/AscI sites into this vector. Wild type AGT and mutant AGT (Lys125Ala, Ala127Thr, Arg128Ala, Asn157Gly, Ser159Glu) are amplified with primers SEQ ID NO:31 and SEQ ID NO:33 and cloned into this vector. Protein expression is carried out in E. coli strain Top 10. An exponentially growing culture is induced with 0.2% arabinose, and the expression is carried out for 16 hours at 28° C. The cells are lysed by adding buffer to 10 ml/g containing 0.5 M NaCl, 80 mM imidazole, 1% Triton, 250 µM PMSF, 1 mM […]-mercaptoethanol, 5 mg/ml lysozyme, 20 µg/ml DNase and stirring for 45 min. […]
The AGT proteins at 10 µM) are quantitatively reacted with fluorescein-modified O^6-benzyl-guanine (substance 5 of Juillerat et al, Chem Biol 10:313-317, 2003, BG-FL, 20 µM) and purified over a size exclusion column (Econopac 10 DG, Bio-Rad) and incubated for 7 days. […] The fluorescence of the supernatant is measured with a Victor2 fluorescence plate reader (Perkin Elmer, excitation/emission at 485/535 nm).

[2] = BG-Cy3 activity assay (reaction rate of AGT mutants); type: biochemical
Description: Reactivity against DNA-based substrates measured with a BG-Cy3 assay: BG-Cy3 is prepared by reacting the previously described O^6-(4-aminomethyl-benzyl)guanine (Keppler et al., NatureBiotechnol. 21:86-89, 2003) with the commercially available N-hydroxysuccinimide ester of Cy3, (Cy3-NHS, Amersham). The coupling reaction is performed at ambient temperature in N,N-dimethylformamide in the presence of 1 eq. of triethylamine. The BG-Cy3 conjugate is purified by reversed-phase HPLC on a C18-column by using linear gradients from 0.1% trifluoroacetic acid to acetonitrile. After solvent evaporation BG-Cy3 is dissolved in dimethyl sulfoxide and stored at −20° C. For measuring the reactivity with DNA-based substrates, a reaction mixture containing different concentrations (0 to 5 µM) of oligonucleotide SEQ ID NO:2 (modified in position 14), GST-AGT fusion protein at 0.2 µM and BG-Cy3 at […] in reaction buffer (50 mM HEPES, pH 7.2, 1 mM DTT, 200 mg/ml BSA) is incubated in microtiterplates. Fluorescence of the Cy3 derivative (excitation 519 nm, emission at 572 nm) is measured on a Spectramax Gemini plate reader (Molecular Devices).
The amplified products are cloned in fusion to the g3 gene of filamentous phage in the vector pAK100 via SfiI restriction sites. The resulting gene libraries are used for phage display as described under Example 4. The mutants of the libraries are selected with 5 to 50 nM of BG-Bt for 10 min. Selected mutants are subcloned into pGEX using the primers SEQ ID NO:3 and SEQ ID NO:13. The reaction rate of mutant AGTs is determined as described in Example 6, Reactivity against DNA-based substrates (BG-Cy3 assay).
For the activity assay purified GST fusion proteins were used for mutants marked with “p.” (prepared as described under Example 1); periplasmic extracts were used for mutants marked with “x.” (prepared as described under Example 2).

[3] = Reaction of two AGT variants in one sample with CPTG and BG-Bt; type: biochemical
Description: FIG. 2: Western blot of the reaction of wild type hAGT (GST-hAGT fusion protein) and AGTM with the two substrates N^9-cyclopentyl-O^6-bromophenyl-guanine (CPTG) and biotinylated O^6-benzylguanine (BG-Bt, substance 3a of Juillerat et al. 2003) as described in Example 7. BG-Bt is present in all samples at 5 μM. Detection with neutravidin-peroxidase conjugate and luminescent peroxidase substrate detecting any AGT reacted with BG-Bt. Even under simultaneous incubation with identical concentrations of CPTG and BG-Bt only about 5% of GST-hAGT reacts with substrate BG-Bt.
Within the experiment two tags with different size for the two AGT proteins are used: The His-tagged AGTM (˜20 kDa) and GST-hAGT (cloned and prepared as described in Example 1, but starting with the wild type hAGT gene, ˜48 kDa) are diluted to 0.2 μM and 1.2 μM final concentration, respectively, in reaction buffer containing 50 mM HEPES, 1 mM DTT, 200 mg/mL BSA (pH 7.3). The sample is incubated with a mixture of substrates N^9-cyclopentyl-O^6-bromophenyl-guanine (CPTG; 0, 5 and 10 μM final concentrations) and biotinylated O^6-benzylguanine (BG-Bt, 5 μM final concentration) for 30 minutes. The reaction is quenched by addition of SDS-Laemmli buffer and subjected to Western blotting analysis (Example 1). As the two AGT variants have different masses, the two proteins can be separated on an acrylamide gel and analyzed independently. […] At the same concentration (both substrates at 5 μM final concentration), 95% of GST-hAGT reacts with CPTG, versus only 5% of His-tagged AGTM.

B1: Wild type hAGT: wild type human O^6-alkylguanine-DNA alkyltransferase (SEQ ID NO:1); GST-hAGT is its GST fusion (protein, listed as Homo sapiens)
chain: MDKDCEMKRTTLDSPLGKLELSGCEQGLHEIKLLGKGTSAADAVEVPAPAAVLGGPEPLMQCTAWLNAYFHQPEAIEEFPVPALHHPVFQQESFTRQVLWKLLKVVKFGEVISYQQLAALAGNPKAARAVGGAMRGNPVPILIPCHRVVCSSGAVGNYSGGLAVKEWLLAHEGHRLGKPGLGGSSGLAGAWLKGAGATSGSPPAGRN
loss of soluble fluorescent protein [1]: about 60% | kobs ([2]; BG-Cy3 activity assay): 116 M⁻¹ s⁻¹ | Relative reaction rate ([2]; divided by value for wild type hAGT, purified GST fusion proteins (p.)): 1 | fraction of protein reacting with CPTG ([3]; CPTG and BG-Bt both at 5 μM, 30 minutes): 95% | fraction of protein reacting with BG-Bt ([3]; simultaneous incubation with identical concentrations of CPTG and BG-Bt): about 5%
